Measured values from patent publication US20130022592A1, “Continuous subcutaneous insulin infusion methods with a hyaluronan-degrading enzyme” (priority 2011, published 2013).
“Also recorded” adds a separate entry of the source. Like-named read-outs stand apart in the source and are kept apart here.

Key:
[1] = cited from earlier work
[2] = Glucodynamics in euglycemic clamps, NovoLog CSII with or without rHuPH20 pretreatment (Example 3); type: in vivo, human; settings: for faster onset of action with rHuPH20 pretreatment / shorter duration of action with rHuPH20 pretreatment: vs without rHuPH20
Procedure: The subjects were confined to an inpatient setting for three days of study.
Approximately 2 hours after insertion of the new insulin infusion catheter set, a euglycemic glucose clamp experiment was conducted (1′ clamp). […] Blood glucose was clamped at 90% of the fasting level to suppress endogenous insulin release during the study. A 0.15 U/kg bolus was administered through the insulin pump; and the usual individual basal rate was continued during clamps and PK results are thus baseline-subtracted.
During the euglycemic glucose clamp experiment, the subjects were followed for six (6) hours during which blood was drawn and free insulin levels and glucose infusion rates required to maintain euglycemia were determined.
In each experiment, the subjects were followed for six (6) hours during which blood was drawn and free insulin levels and glucose infusion rates required to maintain euglycemia were determined as described above.
(§1) The insulin action profile as a function of time, or glucodynamics, was measured by determining the rate of glucose infusion necessary to maintain euglycemia following the bolus insulin infusion.

[3] = Blood glucose response to standardized evening meal (Example 3); type: in vivo, human; settings: with vs without rHuPH20
Text: (§2) The study was continued to include 15 subjects who completed the study protocol, and was further continued to include 17 subjects who completed the study protocol. The subjects were confined to an inpatient setting for three days of study.

[4] = Glucodynamics in euglycemic clamps, rapid acting insulin analog CSII with rHuPH20 or sham injection (Example 4); type: in vivo, human
Text: Patients with type 1 diabetes participated in a randomized, double-blind, 2-way crossover design clinical study comparing the administration of a single hyaluronidase injection at each infusion set change to sham injections in a CSII therapy. The study compared euglycemic clamp endpoints at the beginning and end of 3 days of continuous infusion and glycemic response to a series of four breakfast solid meal challenges. […] In addition, continuous glucose monitoring of the three subjects to compare glucose control in routine outpatient diabetes care also was assessed.
Subjects were released from the CRU the same day.
Subjects returned 3 days later for a second euglycemic clamp after 3 days of continuous infusion. After the clamp experiment the infusion set was changed and the patients discharged. […] Subjects returned to the CRU approximately every 3 days to receive a new infusion set and receive a patient specific standardized breakfast meal and insulin bolus.
as §1

[5] = Routine diabetes management, continuous glucose monitoring (Example 4); type: in vivo, human; settings: three patients; rHuPH20 preadministration
Procedure: The results are depicted below for the first three subjects that completed the study. In addition, continuous glucose monitoring of the three subjects to compare glucose control in routine outpatient diabetes care also was assessed. […] After the clamp experiment the infusion set was changed and the patients discharged. […] To maintain the double-blind study design, a trained professional not otherwise involved in the study administered either rHuPH20 or a sham injection while the patient looked away. After completion of the phase, patients returned to the CRU within 21 days to repeat these steps with the alternate treatment.

[6] = Adverse events (Example 4); type: in vivo, human; settings: eleven evaluable subjects
Text: 4. […] All were mild and resolved without sequaelae. The most common event was headache (n=4).

[7] = in vivo
Procedure: as §2
Adverse events were assessed during the course or infusion treatment.

In the case of Regular Insulin, the Duration ([1]; Table 2, Types of Insulins) is listed as 5 to 8 h and the onset of action ([1]; administered subcutaneously alone) is listed as 30 min.

In the case of insulin lispro, the Duration ([1]; Table 2, Types of Insulins) is listed as 3 to 4 h, the Onset ([1]; Table 2, Types of Insulins) is listed as 0.083 to 0.25 h and the Peak ([1]; Table 2, Types of Insulins) is listed as 0.75 to 1.5 h.

In the case of “detemir: long-lasting insulin (an analog)”, the Duration ([1]; Table 2, Types of Insulins) is listed as 28 h, the Onset ([1]; Table 2, Types of Insulins) is listed as 4 to 6 h and the Peak ([1]; Table 2, Types of Insulins) is listed as 18 to 28 h.

In the case of insulin glargine, the Duration ([1]; Table 2, Types of Insulins) is listed as 28 h, the Onset ([1]; Table 2, Types of Insulins) is listed as 4 to 6 h and the Peak ([1]; Table 2, Types of Insulins) is listed as 18 to 28 h.

In the case of Lente, the Peak ([1]; in vivo) is given as 6 to 12 h.

B1: rHuPH20: soluble recombinant human PH20 hyaluronidase expressed in CHO cells from nucleic acid encoding amino acids 36-482 of SEQ ID NO:1; mixture of SEQ ID NOS:4-9 (protein, listed as Homo sapiens)
chain: LNFRAPPVIPNVPFLWAWNAPSEFCLGKFDEPLDMSLFSFIGSPRINATGQGVTIFYVDRLGYYPYIDSITGVTVNGGIPQKISLQDHLDKAKKDITFYMPVDNLGMAVIDWEEWRPTWARNWKPKDVYKNRSIELVQQQNVQLSLTEATEKAKQEFEKAGKDFLVETIKLGKLLRPNHLWGYYLFPDCYNHHYKKPGYNGSCFNVEIKRNDDLSWLWNESTALYPSIYLNTQQSPVAATLYVRNRVREAIRVSKIPDAKSPLPVFAYTRIVFTDQVLKFLSQDELVYTFGETVALGASGIVIWGTLSIMRSMKSCLLLDNYMETILNPYIINVTLAAKMCSQVLCQEQGVCIRKNWNSSDYLHLNPDNFAIQLEKGGKFTVRGKPTLEDLEQFSEKFYCSCYSTLSCKEKADVKDTDAVDVCIADGVCIDAFLKPPMETEEPQIFY
modifications: mixture of SEQ ID NOS:4-9; precursor human PH20
With B1 the “faster onset of action with rHuPH20 pretreatment” value (“faster onset of action” for short) ([2]; 15 completers) was 9 min, the “shorter duration of action with rHuPH20 pretreatment” value (shortened to “shorter duration of action”) ([2]; 15 completers) was 27 min and the “faster onset of action” value ([2]; 17 completers) was 9 min. For the same molecule, the “shorter duration of action” value ([2]; 17 completers) was 27 min, the “differences in early insulin exposure, onset or duration of action over three days of continuous infusion (in words)” value ([2]; Example 3, rHuPH20 pretreatment) was “no significant differences” and the “reduction in 2 hour glycemic excursion” value ([3]; 15 completers) was 21 mg/dL. The “reduction in 2 hour glycemic excursion” value ([3]; 17 completers) was 19 mg/dL, the “differences in onset or duration of action over three days of continuous infusion (in words)” value ([4]; Example 4, rHuPH20 pretreatment) was “no significant differences” and the “faster onset of action” value ([4]; vs without rHuPH20) was 21 min. The “shorter duration of action” value ([4]; vs without rHuPH20) was 30 min, the “outpatient glucose control (in words)” value [5] was “tighter glucose control” and the “Potential local site reactions (in words)” value [6] was “an abdominal bruise; also recorded: pain at the infusion site; also recorded: a stinging sensation during infusion”. The “subjects with adverse events related to CSII infusion sites (in words)” value [7] was “two subjects”.
